B1: B1-4 (ssDNA)
DNA: CCGCCCAAATCCCTAAGAGAAGACTGTAATGACATCAAACCAGACACACTACACACGCA
B2: M5-5 (ssDNA)
DNA: B1 DNA with T14G, A18G, C24G, A34G, C49T
B3: M4-10 (ssDNA)
DNA: B1 DNA with A18T, T27G, A29T, A44T
B4: M3-6 (ssDNA)
DNA: B1 DNA with A18T, T27G, A44T
B5: M1-8 (ssDNA)
DNA: B1 DNA with A18G
B6: M2-6 (ssDNA)
DNA: B1 DNA with A18G, C49T

Residue numbers refer to the chain shown, from its start.

By Kd is commonly meant the free concentration of one partner at which half of the binding sites on the other are occupied at equilibrium, for simple one-to-one binding. Low readings indicate a tighter complex, high ones a looser complex.

Sequence of interferon-gamma (IFN-γ) (P01579 24-161): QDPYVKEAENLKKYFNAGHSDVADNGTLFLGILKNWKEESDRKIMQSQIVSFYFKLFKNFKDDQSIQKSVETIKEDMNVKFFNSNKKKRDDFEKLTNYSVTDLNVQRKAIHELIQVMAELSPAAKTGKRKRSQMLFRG

The series addresses interferon-gamma (IFN-γ) (Homo sapiens, UniProt P01579 24-161). Kind of series: BLI; PBS pH 7.4, 25 °C; BLI on SA sensors with 500 nM biotinylated aptamer loaded, IFN-γ 125-2000 nM; fluorescence assay in PBS, 250 nM M5-5, MB 1:3, 30 min at 25 °C. The following applies: protein: commercial; chain copies: 2; label: biotin (BLI).
For the molecule B1, binding was put at a Kd of 914 nM.
As for B2, the figure is 106 nM; as for B3, 277 nM; as for B4, 267 nM.
As for B5, the figure is 440 nM; as for B6, 482 nM.

These data come from PMC9457990, “Evolution of Interferon-Gamma Aptamer with Good Affinity and Analytical Utility by a Rational In Silico Base Mutagenesis Post-SELEX Strategy”.
